Results reported in the supplement of paper PMC7125110.
± gives the standard error. This sample holds only a part of the variants without activity.

B1: glmS ribozyme (parent)
chain: AUAAAAGCGCCAGAACUACAGAAAUGUAGUUGACGAGGAGGAGGUUUAUCGAAUUUUCGGCGGAUGCCUCCAAA

Key:
Conditions in all cases: with glucosamine-6-phosphate
glucosamine-6-phosphate [1] = variants of: B1; assay: self-cleavage kobs at 40 uM GlcN6P; higher = faster cleavage; RNA array
Summary of the method: (§1)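 On sequenced MiSeq chips, barcoded ribozyme variants were made in situ by E. coli RNA polymerase and followed at 37 °C through a hybridised Cy3 probe. Glucosamine-6-phosphate was flowed in at 40 μM to 10 mM in HEPES/KCl/Mg(OAc)2 buffer. Exponential fits to normalised per-tile medians gave kobs, and weighted Michaelis–Menten fits gave kcat and KM.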

glucosamine-6-phosphate [2] = variants of: B1; assay: self-cleavage kobs at 10000 uM GlcN6P; higher = faster cleavage; RNA array
Summary of the method: as §1

glucosamine-6-phosphate [3] = variants of: B1; assay: self-cleavage kobs at 160 uM GlcN6P; higher = faster cleavage; RNA array
Summary of the method: as §1

glucosamine-6-phosphate [4] = variants of: B1; assay: self-cleavage kobs at 640 uM GlcN6P; higher = faster cleavage; RNA array
Summary of the method: as §1

glucosamine-6-phosphate [5] = variants of: B1; assay: self-cleavage kobs at 2500 uM GlcN6P; higher = faster cleavage; RNA array
Summary of the method: as §1

Row | Variant | self-cleavage kobs at 40 uM GlcN6P (glucosamine-6-phosphate [1]) [s⁻¹] | self-cleavage kobs at 10000 uM GlcN6P (glucosamine-6-phosphate [2]) [s⁻¹] | self-cleavage kobs at 160 uM GlcN6P (glucosamine-6-phosphate [3]) [s⁻¹] | self-cleavage kobs at 640 uM GlcN6P (glucosamine-6-phosphate [4]) [s⁻¹] | self-cleavage kobs at 2500 uM GlcN6P (glucosamine-6-phosphate [5]) [s⁻¹]
1 | AUAAAGGCGCCAGAACUACAGAAAUGUAGUUGUCGAGGAGGAGGUUUAUCGAUUUUUCGGCGGAUGCCUCCAAA | < 1e-05 | < 1e-05 | – | – | –
2 | AUAAAGGCGCCAGAACUACAGAAAUGUAGUUGACGAGGAGGACGUUUAUCGAAUUUUCGGCGGAUGCCUCCAAA | < 1e-05 | < 1e-05 | < 1e-05 | < 1e-05 | < 1e-05
3 | AUAAAGGCGCCAGAACUACAGAAAUGUAGUUGACGAGGAGGAGGUUUUUCGAAUUUUCGGCGGAUGCCUCCAAA | < 1e-05 | < 1e-05 | < 1e-05 | < 1e-05 | < 1e-05
4 | AUAAAGGCGCCAGAACUACAGAAAUGUAGUUGACGAGCAGGAGGUUUAUCGAAUUUUCGGCGGAUGCCUCCAAA | < 1e-05 | < 1e-05 | < 1e-05 | < 1e-05 | < 1e-05
5 | AUAAAGGCGCAAGAACUACAGAAAUGUAGUUGACGAGGAGGAGGUUUAUGGAAUUUUUGGCGGAUGCCUCCAAA | 0.000139 ± 2.5e-05 | – | – | – | –
6 | AUAAAGGCCCCAGAACUACAGAAAUGUAGUUGACGAGGAGGAGGUUUAUCGAAUUUUCUGCGGAUGCCUCCAAA | < 1e-05 | – | – | – | < 1e-05
7 | AUAAAGGCGCCAGAACUACAGAAAUGUAGUUGACGAGGAGGAGGUUUAUCGAAUUUUCGGCGGCUGCCUCCAAA | < 1e-05 | < 1e-05 | < 1e-05 | < 1e-05 | –
8 | AUAAAGGUGCCAGAACUACAGAAAUGUAGUUGACGAGGAGGAGGUUUAUCGAAUUUCCGGCGGAUGUCUCCAAA | < 1e-05 | < 1e-05 | – | – | –
9 | AUAAAGGCGCCAGAACUACAGAAAUGUAGUUGACGAGGAGGAGGUUUAUCGAAUUUUCGGGGGAUGCCUCCAAA | < 1e-05 | < 1e-05 | < 1e-05 | < 1e-05 | < 1e-05
10 | AUAAAGGCGCCAGAACUACAGAAAUGUAGUUGACCAGGAGGAGGUUUAUCGAAUUUUCGGCGGAUGCCUCCAAA | < 1e-05 | < 1e-05 | < 1e-05 | < 1e-05 | < 1e-05
11 | AUAAAGGAGCCAGAACUACAGAAAUGUAGUUGACGAGGAGGAGGUUUAUCGAAUUUUUGGCGGAUGCCUCCAAA | < 1e-05 | < 1e-05 | – | – | –
12 | AUAAAGGCGCCAGAACUACAGAAAUGUAGUUAACGACGAGGAGGUGUAUCGAAUUUUAGGCGGAUGGCUCCAAA | 0.000232 ± 6.3e-05 | 0.000132 ± 3.3e-05 | – | 0.000494 ± 0.00014 | –
13 | AUAAAGGCGCCAGAACUACAGAAAUGUAGUUGACGAGGAGGUGGUUUAUCGAAUUUUUGGCGGAUGCCUCCAAA | < 1e-05 | – | – | – | –
14 | AUAAAGGCGCCAGAAGUACAGAAAUGUAGUUGACGAGGAGGAGGUUUAUCGAAUUUUCGGCGGAUCCCUCCAAA | < 1e-05 | – | – | – | –
15 | AUAAAGGCGCCAGAACUACAGAAAUGUAGUUGGCUAGGAGGAGGUUUAUCGAAUUUUCGGCGGAUGCGUUCAAA | 6.36e-05 ± 1.8e-05 | 0.000167 ± 3.1e-05 | – | – | –
16 | AUAAAGGCGCCAGAACUACAGAAAUGUAGUUGACGAGGAGUAGGUUUAUCGAAUUUGCCGCGGAUGCCUCUAAA | < 1e-05 | < 1e-05 | < 1e-05 | < 1e-05 | < 1e-05
17 | AUAAAGGCGCCAGAACUACAGAAAUGUAGUUGACGAGGAGGGGGUUUAUAGAACUUUCGGCGGAUGCCUGCAAA | < 1e-05 | < 1e-05 | < 1e-05 | < 1e-05 | < 1e-05
18 | AUAAAGGCGCCAGAACUACAGAAAUGUAUUUGACAAGGAGGAGGUUUAUGUAAUUUUCGGCGGAUUCCUCUAAA | < 1e-05 | – | – | – | –
19 | AUAAAGGCGCCAGAACUACAGAAAUGUAGUUGACGAGGACGAGGUUGAGCGAAUUUUGGGCGGAUGCAUCCAAA | < 1e-05 | < 1e-05 | – | – | –
20 | AUAAAGGCGCCAUAACUACAGAAAUGUAGUUGACGAGUAUGAGGUUUAUCGAAUUUUCGGCGGAUGCCUCCAAA | < 1e-05 | < 1e-05 | – | – | –
21 | AUAAAGGAGCCAGAACUACAGAAAUGUAGUUCACGAGGAGGAGGUUUAUCGAAUUUUCGGCGGAUGCCUCCAAA | < 1e-05 | – | – | – | < 1e-05
22 | AUAAAGACGCCAGAACUACAGAAAUGUAGUUGACGAGGAGGAGGUUUAUCCAAUUUUCGGCGGAUGCCUCCAAA | < 1e-05 | < 1e-05 | – | – | –
23 | AUAAAGGUGCCAGAACUACAGAAAUGUAGUUGACGAGGAGGAGGUUUAUCGAAUUUUCGGCGGAUGCCUCCAAA | < 1e-05 | < 1e-05 | – | – | < 1e-05
24 | AUAAAGGCGCCAGAACUACAGAAAUGUAAUUGAGGAGGAGGAGGUUUAUCGAAUUUUCGGCGGAUGCCUCCAAA | < 1e-05 | < 1e-05 | – | < 1e-05 | < 1e-05
25 | AUAAAGGGGCCAGAACUACAGAAAUGUAGUUGACGAGGAAGAGGUUUAUCGAAUUUUCGGCGGAUGCCUCCAAA | < 1e-05 | < 1e-05 | – | – | –
26 | AUAAAGGCGCCAGAACUACAGAAAUGUAGUUGACGCGGAGGAGGUUUAUCGAAUUUUCGGCGAAUGCCUCCAAA | < 1e-05 | < 1e-05 | – | – | –
27 | AUAAAGGCGCCACAACUACAGAAAUGUAGUGGACGAGGCGGAGGGUUAUCGAAUUUUCGGCGGAUGCCUCCAAA | < 1e-05 | < 1e-05 | – | – | –
28 | AUAAAGGCGCUAGAACUACAGAAAUGUAGUUCACGAGGAGGAGGUUUAUCGAAUUUUCGGCGGAUGCCUCCAAA | < 1e-05 | – | – | – | –
